Results on nine substances are retold here after PMC3098868.

In assay [1] the target is human insulin receptor, isoform A (holoreceptor) (human) (UniProt P06213). The experiment in a line: radioligand binding; scintillation proximity assay (SPA): competition of [125I]TyrA14-labelled insulin binding to solubilized holoreceptor, with IR-specific antibody 83-7; analogues taken directly from yeast supernatant after conversion; four-parameter logistic model; affinity relative to human insulin within the same plate [IC50(insulin)/IC50(analogue) x 100%]; near physiological pH.

For assay [2], the target named is human insulin receptor, isoform B (holoreceptor) (human) (UniProt P06213). The description is as above.
For assay [3] the target is unchanged. The experiment in a line: radioligand binding; scintillation proximity assay (SPA): competition of [125I]TyrA14-labelled insulin binding to solubilized holoreceptor, with IR-specific antibody 83-7; purified ligand (human insulin standard, tracer, purified unglycosylated [A8H, B25N]); near physiological pH. (In general: SPA uses beads or plates that emit light when radiolabelled molecules are held near them.)

With “[A8H, B25A, B27E] desB30 insulin analogue (ligand)”, the results for the relative affinity (IC50 insulin/IC50 analogue x 100%) (% of human insulin) in assay [1] and in assay [2] were 10 and 24, respectively.

In the case of “[A8H, B25H, B27D] desB30 insulin analogue (ligand)”, the relative affinity (IC50 insulin/IC50 analogue x 100%) (% of human insulin) in assay [1] was found to be 43; in assay [2], 82.

With “[A8H, B25H, B27E] desB30 insulin analogue (ligand)”, the relative affinity (IC50 insulin/IC50 analogue x 100%) (% of human insulin) in assay [1] turned out to be 67; in assay [2] it was 140.

As to “[A8H, B25N, B27D] desB30 insulin analogue (ligand)”, the relative affinity (IC50 insulin/IC50 analogue x 100%) (% of human insulin) was determined as 10 in assay [1] and 38 in assay [2].

With “[A8H, B25N, B27E] desB30 insulin analogue (ligand)”, the relative affinity (IC50 insulin/IC50 analogue x 100%) (% of human insulin) in assay [1] was 15; in assay [2] it was 57.

“[A8H, B25N] desB30 insulin analogue (ligand)” showed a fold difference in relative binding potency, IR-B over IR-A in assay [3] of 2 fold. Besides, the figures for the relative affinity (IC50 insulin/IC50 analogue x 100%) (% of human insulin) in assay [1] and in assay [2] were 22 and 44, respectively.

Consider “[A8H, B25Y, B27E] desB30 insulin analogue (ligand)”, for which the relative affinity (IC50 insulin/IC50 analogue x 100%) (% of human insulin) in assay [1] turned out to be 714; in assay [2], 459.

[A8H] desB30 insulin analogue (ligand): the relative affinity (IC50 insulin/IC50 analogue x 100%) (% of human insulin) in assay [1] and in assay [2] was 308 throughout.

As to [B25N] desB30 insulin analogue (ligand), the relative affinity (IC50 insulin/IC50 analogue x 100%) (% of human insulin) in assay [1] turned out to be 4; in assay [2], 8.
